Measurements: PMC4394351

Target: GFP-tagged human PPP1R15A (GFP-hR15A) (human) (UniProt O75807)
Experiment: co-IP; as a5, then three washes in GFP-Trap lysis buffer with additional NaCl; 350 mM salt

Sequence of UniProt O75807 (O75807 whole entry): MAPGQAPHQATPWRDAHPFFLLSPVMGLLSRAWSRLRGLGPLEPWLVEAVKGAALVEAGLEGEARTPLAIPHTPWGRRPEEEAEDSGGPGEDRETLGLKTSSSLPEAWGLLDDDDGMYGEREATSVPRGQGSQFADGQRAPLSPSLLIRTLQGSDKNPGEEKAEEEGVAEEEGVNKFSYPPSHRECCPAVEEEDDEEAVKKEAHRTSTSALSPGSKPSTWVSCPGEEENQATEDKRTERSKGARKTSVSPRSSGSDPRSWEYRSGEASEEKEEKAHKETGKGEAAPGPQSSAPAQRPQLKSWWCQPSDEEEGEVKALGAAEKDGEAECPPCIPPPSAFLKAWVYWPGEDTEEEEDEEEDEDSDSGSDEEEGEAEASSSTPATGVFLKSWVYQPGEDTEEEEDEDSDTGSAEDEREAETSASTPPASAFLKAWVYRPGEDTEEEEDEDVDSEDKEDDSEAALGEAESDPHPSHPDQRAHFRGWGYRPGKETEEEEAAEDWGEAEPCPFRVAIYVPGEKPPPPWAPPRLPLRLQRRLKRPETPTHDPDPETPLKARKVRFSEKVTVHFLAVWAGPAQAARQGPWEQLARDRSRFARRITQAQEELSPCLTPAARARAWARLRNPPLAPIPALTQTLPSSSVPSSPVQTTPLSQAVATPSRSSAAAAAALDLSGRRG

**Q.** Which percent of the actin bound at 150 mM salt that was lost at 350 mM does the source give for “actin (endogenous, HEK293T cells) (from UniProt P60709 1-375) (natural protein)” here?
**A.** 75%
